The text below walks through data of patent US20240321457A1 (University of California, published 2024).

B1: BRCA1 5382insC (enzyme, human, UniProt P38398 1-1755, looked up)
chain: MDLSALRVEEVQNVINAMQKILECPICLELIKEPVSTKCDHIFCKFCMLKLLNQKKGPSQCPLCKNDITKRSLQESTRFSQLVEELLKIICAFQLDTGLEYANSYNFAKKENNSPEHLKDEVSIIQSMGYRNRAKRLLQSEPENPSLQETSLSVQLSNLGTVRTLRTKQRIQPQKTSVYIELGSDSSEDTVNKATYCSVGDQELLQITPQGTRDEISLDSAKKAACEFSETDVTNTEHHQPSNNDLNTTEKRAAERHPEKYQGSSVSNLHVEPCGTNTHASSLQHENSSLLLTKDRMNVEKAEFCNKSKQPGLARSQHNRWAGSKETCNDRRTPSTEKKVDLNADPLCERKEWNKQKLPCSENPRDTEDVPWITLNSSIQKVNEWFSRSDELLGSDDSHDGESESNAKVADVLDVLNEVDEYSGSSEKIDLLASDPHEALICKSERVHSKSVESNIEDKIFGKTYRKKASLPNLSHVTENLIIGAFVTEPQIIQERPLTNKLKRKRRPTSGLHPEDFIKKADLAVQKTPEMINQGTNQTEQNGQVMNITNSGHENKTKGDSIQNEKNPNPIESLEKESAFKTKAEPISSSISNMELELNIHNSKAPKKNRLRRKSSTRHIHALELVVSRNLSPPNCTELQIDSCSSSEEIKKKKYNQMPVRHSRNLQLMEGKEPATGAKKSNKPNEQTSKRHDSDTFPELKLTNAPGSFTKCSNTSELKEFVNPSLPREEKEEKLETVKVSNNAEDPKDLMLSGERVLQTERSVESSSISLVPGTDYGTQESISLLEVSTLGKAKTEPNKCVSQCAAFENPKGLIHGCSKDNRNDTEGFKYPLGHEVNHSRETSIEMEESELDAQYLQNTFKVSKRQSFAPFSNPGNAEEECATFSAHSGSLKKQSPKVTFECEQKEENQGKNESNIKPVQTVNITAGFPVVGQKDKPVDNAKCSIKGGSRFCLSSQFRGNETGLITPNKHGLLQNPYRIPPLFPIKSFVKTKCKKNLLEENFEEHSMSPEREMGNENIPSTVSTISRNNIRENVFKEASSSNINEVGSSTNEVGSSINEIGSSDENIQAELGRNRGPKLNAMLRLGVLQPEVYKQSLPGSNCKHPEIKKQEYEEVVQTVNTDFSPYLISDNLEQPMGSSHASQVCSETPDDLLDDGEIKEDTSFAENDIKESSAVFSKSVQKGELSRSPSPFTHTHLAQGYRRGAKKLESSEENLSSEDEELPCFQHLLFGKVNNIPSQSTRHSTVATECLSKNTEENLLSLKNSLNDCSNQVILAKASQEHHLSEETKCSASLFSSQCSELEDLTANTNTQDPFLIGSSKQMRHQSESQGVGLSDKELVSDDEERGTGLEENNQEEQSMDSNLGEAASGCESETSVSEDCSGLSSQSDILTTQQRDTMQHNLIKLQQEMAELEAVLEQHGSQPSNSYPSIISDSSALEDLRNPEQSTSEKAVLTSQKSSEYPISQNPEGLSADKFEVSADSSTSKNKEPGVERSSPSKCPSLDDRWYMHSCSGSLQNRNYPSQEELIKVVDVEEQQLEESGPHDLTETSYLPRQDLEGTPYLESGISLFSDDPESDPSEDRAPESARVGNIPSSTSALKVPQLKVAESAQSPAAAHTTDTAGYNAMEESVSREKPELTASTERVNKRMSMVVSGLTPEEFMLVYKFARKHHITLTNLITEETTHVVMKTDAEFVCERTLKYFLGIAGGKWVVSYFWVTQSIKERKMLNEHDFEVRGDVVNGRNHQGPKRARESPGQKDLQGARNLLLWALHQHAHRSTGMDGTAVWCFCGEGAFIIHPWHRCPPNCGCAARCLDRGQWLPCNWADV
notes: 3xFLAG-tagged bait; also called 5832insC
B2: BRCA1 C61G (enzyme, human, UniProt P38398 1-1863, looked up)
chain: MDLSALRVEEVQNVINAMQKILECPICLELIKEPVSTKCDHIFCKFCMLKLLNQKKGPSQGPLCKNDITKRSLQESTRFSQLVEELLKIICAFQLDTGLEYANSYNFAKKENNSPEHLKDEVSIIQSMGYRNRAKRLLQSEPENPSLQETSLSVQLSNLGTVRTLRTKQRIQPQKTSVYIELGSDSSEDTVNKATYCSVGDQELLQITPQGTRDEISLDSAKKAACEFSETDVTNTEHHQPSNNDLNTTEKRAAERHPEKYQGSSVSNLHVEPCGTNTHASSLQHENSSLLLTKDRMNVEKAEFCNKSKQPGLARSQHNRWAGSKETCNDRRTPSTEKKVDLNADPLCERKEWNKQKLPCSENPRDTEDVPWITLNSSIQKVNEWFSRSDELLGSDDSHDGESESNAKVADVLDVLNEVDEYSGSSEKIDLLASDPHEALICKSERVHSKSVESNIEDKIFGKTYRKKASLPNLSHVTENLIIGAFVTEPQIIQERPLTNKLKRKRRPTSGLHPEDFIKKADLAVQKTPEMINQGTNQTEQNGQVMNITNSGHENKTKGDSIQNEKNPNPIESLEKESAFKTKAEPISSSISNMELELNIHNSKAPKKNRLRRKSSTRHIHALELVVSRNLSPPNCTELQIDSCSSSEEIKKKKYNQMPVRHSRNLQLMEGKEPATGAKKSNKPNEQTSKRHDSDTFPELKLTNAPGSFTKCSNTSELKEFVNPSLPREEKEEKLETVKVSNNAEDPKDLMLSGERVLQTERSVESSSISLVPGTDYGTQESISLLEVSTLGKAKTEPNKCVSQCAAFENPKGLIHGCSKDNRNDTEGFKYPLGHEVNHSRETSIEMEESELDAQYLQNTFKVSKRQSFAPFSNPGNAEEECATFSAHSGSLKKQSPKVTFECEQKEENQGKNESNIKPVQTVNITAGFPVVGQKDKPVDNAKCSIKGGSRFCLSSQFRGNETGLITPNKHGLLQNPYRIPPLFPIKSFVKTKCKKNLLEENFEEHSMSPEREMGNENIPSTVSTISRNNIRENVFKEASSSNINEVGSSTNEVGSSINEIGSSDENIQAELGRNRGPKLNAMLRLGVLQPEVYKQSLPGSNCKHPEIKKQEYEEVVQTVNTDFSPYLISDNLEQPMGSSHASQVCSETPDDLLDDGEIKEDTSFAENDIKESSAVFSKSVQKGELSRSPSPFTHTHLAQGYRRGAKKLESSEENLSSEDEELPCFQHLLFGKVNNIPSQSTRHSTVATECLSKNTEENLLSLKNSLNDCSNQVILAKASQEHHLSEETKCSASLFSSQCSELEDLTANTNTQDPFLIGSSKQMRHQSESQGVGLSDKELVSDDEERGTGLEENNQEEQSMDSNLGEAASGCESETSVSEDCSGLSSQSDILTTQQRDTMQHNLIKLQQEMAELEAVLEQHGSQPSNSYPSIISDSSALEDLRNPEQSTSEKAVLTSQKSSEYPISQNPEGLSADKFEVSADSSTSKNKEPGVERSSPSKCPSLDDRWYMHSCSGSLQNRNYPSQEELIKVVDVEEQQLEESGPHDLTETSYLPRQDLEGTPYLESGISLFSDDPESDPSEDRAPESARVGNIPSSTSALKVPQLKVAESAQSPAAAHTTDTAGYNAMEESVSREKPELTASTERVNKRMSMVVSGLTPEEFMLVYKFARKHHITLTNLITEETTHVVMKTDAEFVCERTLKYFLGIAGGKWVVSYFWVTQSIKERKMLNEHDFEVRGDVVNGRNHQGPKRARESQDRKIFRGLEICCYGPFTNMPTDQLEWMVQLCGASVVKELSSFTLGTGVHPIVVVQPDAWTEDNGFHAIGQMCEAPVVTREWVLDSVALYQCQELDTYLIPQIPHSHY
notes: 3xFLAG-tagged bait; also called RING domain mutant C61G
B3: BRIP1 (enzyme, human, UniProt Q9BX63 1-1249, looked up)
chain: MSSMWSEYTIGGVKIYFPYKAYPSQLAMMNSILRGLNSKQHCLLESPTGSGKSLALLCSALAWQQSLSGKPADEGVSEKAEVQLSCCCACHSKDFTNNDMNQGTSRHFNYPSTPPSERNGTSSTCQDSPEKTTLAAKLSAKKQASIYRDENDDFQVEKKRIRPLETTQQIRKRHCFGTEVHNLDAKVDSGKTVKLNSPLEKINSFSPQKPPGHCSRCCCSTKQGNSQESSNTIKKDHTGKSKIPKIYFGTRTHKQIAQITRELRRTAYSGVPMTILSSRDHTCVHPEVVGNFNRNEKCMELLDGKNGKSCYFYHGVHKISDQHTLQTFQGMCKAWDIEELVSLGKKLKACPYYTARELIQDADIIFCPYNYLLDAQIRESMDLNLKEQVVILDEAHNIEDCARESASYSVTEVQLRFARDELDSMVNNNIRKKDHEPLRAVCCSLINWLEANAEYLVERDYESACKIWSGNEMLLTLHKMGITTATFPILQGHFSAVLQKEEKISPIYGKEEAREVPVISASTQIMLKGLFMVLDYLFRQNSRFADDYKIAIQQTYSWTNQIDISDKNGLLVLPKNKKRSRQKTAVHVLNFWCLNPAVAFSDINGKVQTIVLTSGTLSPMKSFSSELGVTFTIQLEANHIIKNSQVWVGTIGSGPKGRNLCATFQNTETFEFQDEVGALLLSVCQTVSQGILCFLPSYKLLEKLKERWLSTGLWHNLELVKTVIVEPQGGEKTNFDELLQVYYDAIKYKGEKDGALLVAVCRGKVSEGLDFSDDNARAVITIGIPFPNVKDLQVELKRQYNDHHSKLRGLLPGRQWYEIQAYRALNQALGRCIRHRNDWGALILVDDRFRNNPSRYISGLSKWVRQQIQHHSTFESALESLAEFSKKHQKVLNVSIKDRTNIQDNESTLEVTSLKYSTSPYLLEAASHLSPENFVEDEAKICVQELQCPKIITKNSPLPSSIISRKEKNDPVFLEEAGKAEKIVISRSTSPTFNKQTKRVSWSSFNSLGQYFTGKIPKATPELGSSENSASSPPRFKTEKMESKTVLPFTDKCESSNLTVNTSFGSCPQSETIISSLKIDATLTRKNHSEHPLCSEEALDPDIELSLVSEEDKQSTSNRDFETEAEDESIYFTPELYDPEDTDEEKNDLAETDRGNRLANNSDCILAKDLFEIRTIKEVDSAREVKAEDCIDTKLNGILHIEESKIDDIDGNVKTTWINELELGKTHEIEIKNFKPSPSKNKGMFPGFK
notes: endogenous prey from cell lysate
B4: BRCA1 R71G (enzyme, human, UniProt P38398 1-1863, looked up)
chain: B2 chain with G61C, R71G
notes: 3xFLAG-tagged bait; also called RING domain mutant R71G
B5: BRCA1 S1655F (enzyme, human, UniProt P38398 1-1863, looked up)
chain: B2 chain with G61C, S1655F
notes: 3xFLAG-tagged bait; also called BRCT domain mutant S1655F; 51655F
B6: BRCA1 M1775R (enzyme, human, UniProt P38398 1-1863, looked up)
chain: B2 chain with G61C, M1775R
notes: 3xFLAG-tagged bait; also called BRCT domain mutant M1775R

Substitutions are numbered along the chain they refer to. In names and notes the source's numbering stands.

One assay concerns the target T1, UBE2N (human, UniProt P61088 1-152).
T1 construct: endogenous prey from cell lysate; also called UBC13
T1 sequence (looked up): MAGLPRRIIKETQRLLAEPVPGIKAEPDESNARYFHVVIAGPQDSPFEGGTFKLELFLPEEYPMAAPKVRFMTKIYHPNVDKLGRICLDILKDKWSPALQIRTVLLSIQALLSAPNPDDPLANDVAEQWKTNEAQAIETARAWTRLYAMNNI
The experiment in a line: AP-MS, PPI score from compPASS and SAINTexpress, MDA-MB-231 cells.

The assay “BRCA1 M1775R” deals with B6. The experiment in a line: AP-MS, MSstats WT vs mutant, MDA-MB-231 cells.
The assay “BRCA1 S1655F” addresses B5. The experiment in a line: AP-MS, MSstats WT vs mutant, MDA-MB-231 cells.
The assay “BRCA1 5382insC” has as its target B1. The experiment in a line: AP-MS, MSstats WT vs mutant, MDA-MB-231 cells.

Description for UBE2N: For AP-MS experiments, samples were resuspended in 15 μL of MS loading buffer (4% formic acid, 2% acetonitrile) and 2 μL were separated by a reversed-phase gradient over a nanoflow 75 μm ID×25 cm long picotip column packed with 1.9 μM C18 particles (Dr. Maisch). Peptides were directly injected over the course of a 75 min acquisition into a Q-Exactive Plus mass spectrometer (Thermo), or over the course of a 90 min acquisition into a Orbitrap Elite mass spectrometer. […] Peptides and proteins were filtered to 1% false discovery rate in MaxQuant, and identified proteins were then subjected to protein-protein interaction scoring.
All PPI scoring was performed separately for each cell line. For SAINTexpress, control samples in which bait protein was not induced by addition of doxycycline were used. For CompPASS, a stats table representing all WT baits was used. After scoring, the CompPASS WD and Z-score were normalized within a given bait for each cell line. The total list of candidate PPIs was filtered to those that met the following criteria: SAINTexpress BFDR=<0.05, WD percentile by bait>=0.95, and Z-score percentile by bait≤=0.95. PPIs passing all 3 of these criteria were considered to be high-confidence PPIs. To enable visualization and analysis of PPIs by confidence score among these 3 criteria, a PPI score was calculated: [(WD percentile by bait+Z-score percentile by bait)/2)+(1−BFDR)]/2.

B1 returned a PPI score with UBE2N of under 0.6.

B2 came in with a PPI score with UBE2N of under 0.6.

Consider B3, for which the binding result with BRCA1 M1775R, in the assay with BRCA1 S1655F and in the assay with BRCA1 5382insC was “no binding” each time.

In the assay with UBE2N, B4 registered a PPI score of under 0.6.

In the assay with UBE2N, B5 displayed a PPI score of under 0.6.

In the assay with UBE2N, B6 displayed a PPI score of under 0.6.
